Experimental data reported in the DeepSol protein solubility set.

Assay: soluble on expression in E. coli; label from the status in PepcDB or PDB records

Sequence | soluble on expression in E. coli
MHLNNLNNFNNLENNGEYHCSGPIIKKPFRHIALTVPSSDITNFNEIFYVEPQYIAQAIRLTNTFQGAIDPLTLNFNFEKALQIANGLPNAGVTGTINQSVIHQTIEVSVMISQIKEIIRSVLGLVINSANFWNSVVSAITNTFTNLEPQVDENWIVWRNLSATQTSYFYKILFSIQNEDTGRFMAILPIAFEITVDVQKQQLLFITIKDSARYEVKMKALTVVQALDSYNAPIIDVFNVRNYSLHRPNHNILQNLNVNPIKS | soluble
MSLTELYIHNGRDVSGAPVAVLITDGVIAEVGTELTVPVGCPTLDAQGCYITAGWIDDHTHCNAHAALYYDDADAIGYRTGVTTVIDAGSTGADNVADLYQQAHRAATNVYALLNIARTGIVAQDELADLNQLSFSALRTAIKRYPDFIVGLKVRVSKSVVGDNGVEPLRVAKQYQADLTVQLPLMVHIGSNPPELAAIIALMRPGDVLTHCFNGKPNGIVNSTGEVAQYVRKAYQKGLIFDVGHGTDSFSFRTAALARTAHLFPQTLSSDIYYRNRLNGPVYSLAVCVEKLLLLGYRLEEIIPMITTNPARIFKLTHKGQLCRGYDADLTIFQTVTAPQIVVDSTGEERIAPTQVIPTYSVIAGRVYTCGVDKEGHHHHHH | soluble
MSLKINAILDQSNASAEKVDAYQVQLTNGISEAKNIADEAGKEAVQIATDAGNQANETANQAMNNAKTAIMIAGNAVSTANNNKQEFDTLRNDFDQLVAEAGDSNPEIVQARTDTQGIKQATLANRLQIDLNDRMTKADGISLLAKPTTVKMKLDFNGKTAGNTATNANSYSTDFTAKILKKPTEVWEEVSQADYNKMASRDDEGVKTGSTQSGVIPQQLAAFNLVEAAKKLIPQMFETVTTDEAVAFIRQNVQFFTINQRVKAAAPNNQTIKIATYLPTTDNWVTQIQESAKEFGDFSIQINDQNFITDEGFIYLMSYTDSSNGVTPASLEVDYVGLHIGLSVDAQAVLAKSGFVQAEQLNTHMENQDNPHQVTAEQVGLGNVENYGFASDSEAVAGTLTSKYMHPKNVAEAIKGQAVTQTGDQEIAGVKNFVTMPTVNGVPLESSRMAIYEASGVGEVEAKYQAAFNKDNMKFVLIRVGNRVDAFVRCNLSDPTKLNNNLVKVFTVPTGYTLSTKITKGIWNLALTAMQYTFPQPNCAGLYEMGNQGILFGANRAGNIYLQGSWYTDDPFPTKEGHHHHHH | soluble
MFQRKTLQRRNLKGLNLNLHPDVGNNGQLQEKTETHQGQSRIEGHVMSNINAIQNNSNLFLRRGIKKKLTLDAFGDDQAISKPNTVVIQQPQNEPVLVLSSLSQSPCVSSSSSLSTPCIIDAYSNNFGLSPSSTNSTPSTIQGLSNIATPVENEHSISLPPLEESLSPAAADLKDTLSGTSNGNYIQLQDLVQLGKIGAGNSGTVVKALHVPDSKIVAKKTIPVEQNNSTIINQLVRELSIVKNVKPHENIITFYGAYYNQHINNEIIILMEYSDCGSLDKILSVYKRFVQRGTVSSKKTWFNELTISKIAYGVLNGLDHLYRQYKIIHRDIKPSNVLINSKGQIKLCDFGVSKKLINSIADTFVGTSTYMSPERIQGNVYSIKGDVWSLGLMIIELVTGEFPLGGHNDTPDGILDLLQRIVNEPSPRLPKDRIYSKEMTDFVNRCCIKNERERSSIHELLHHDLIMKYVSPSKDDKFRHWCRKIKSKIKEDKRIKREALDRAKLEKKQSERSTH | not soluble
MGSDKIHHHHHHMVRFISNTLSQTLNEPFQQSHKSCKHLYILEILSQVVIVSDQKQVPLQPYDIILAQSFNHLQIDSLDRNPILLRLYSLDFDLPSPLNQYTVGDNPLIHDLMNDHTSEDAYILFTNLSDLICHAYLDALEKLENLRDNNDEQVYIDFQRQKLAGLLFTELLRQHDAKVSKFASRFPSVNVKYASKDSQSGAIMKYVSDNVHHISLKEAAAHFFYQANYFSRLCHELFGISFNQLKTTIRLEIAKEQLRLTTKSVEEISQELGYKAVSNFHRNFKSQTGMTPNDYRQDKQ | not soluble
MGSDKIHHHHHHMEEEAIVPEVLLDKAIELGLSFTGSTFPISIFPSEIRNIIAEVHECQGFPIDYIASAMLVAIAVGIGNTHLAELKRGWQESTMLYVALVGRPGTNKSHPLSFAMKPFLDFDYQENKLYERSYAEYDNIMRMNRKERIEGGFPDQPTEPMRKRFLVSDITPEGLSFIHAQNKRGLCLWTDELSAWFKNFNRYNSGSEEQFWLSVFSAKATISDRKGNRSSIFIKRPYISVVGTIQKKILGELSKGERSSNGFIDRILFVMPNLQQKARWSRTELPDDTEKRWGGIIRRLIDLPCAKDEEGEVTPEIIPFEEDAKARLYMWQEEHARLCDTEANEVLVGVYCKLEIYIIRFCLIIQLARWVCGESEKSAIDLTSVERAITLTEYFRHSAQQVHAEIAGVQLTQQQQQLLAELPASFQTAEALSIAQKLGMKERAFKDFLSRNIGHLFAKERHGLYHKLNM | not soluble
MGSDKIHHHHHHMKISPLCPSCLLGRVYYEAKLVTDDEDLISQCVDESLKILAENYSSAPINAHLATRIHRRVYEILGVEDPYAEVKARANEVARQVLPLAKEIVEGSDDPFKTAVIVSIVGNNFDYGVQGHKVVEEEFRDFLKRKVQEGLKINDTERIKELSSGKVVYLTDNAGEIFFDTLLMKEIKRRCEKLTAVVRGRPIISDATIEDARLARVDKIADELLTNGKGAIGIIMDELPDETRKALEEADLIVAKGMANYECLSDGSLKPIAFLLTAKCEPVARDIGVNVGDMVAKVVE | not soluble
MKFTVGNGQNQHKGVNDGFSYEIWLDNTGGNGSMTLGSGATFKAEWNAAVNRGNFLARRGLDFGSQKKATDYDYIGLDYAATYKQTASASGNSRLCVYGWFQNRGLNGVPLVEYYIIEDWVDWVPDAQGKMVTIDGAQYKIFQMDHTGPTINGGSETFKQYFSVRQQKRTSGHITVSDHFKEWAKQGWGIGNLYEVALNAEGWQSSGVADVTLLDVYTTPKGSSPALEHHHHHH | soluble
MATIGLDRLYYAKITENENGEETYATPVPLAKAITAELSVELAEATLYADDGAAEVVKEFQSGTLTLGVADIGVDAAEVLTGATLDDNKVLISTSEDGGAPVAIGFRAKKANGKYRYFWLYRVKFGIPATNLQTKGDSITFSTPTIEGTVMRRNKPDGQGKHPWKAEVSEDDPGVLPETIAGWYTEVYEPVFAVGGGS | not soluble
GHMEERVLGMPAVESNMFPLGKQAPPFALTNVIDGNVVRLEDVKSDAATVIMFICNHCPFVKHVQHELVRLANDYMPKGVSFVAINSNDAEQYPEDSPENMKKVAEELGYPFPYLYDETQEVAKAYDAACTPDFYIFDRDLKCVYRGQLDDSRPNNGIPVTGESIRAALDALLEGRPVPEKQKPSIGCSIKWKPSA | soluble
KRTMSISWPLAFSGAFQGSLTGMDNLRFICRIYNVDIDYVKAFTEEFSELGQYLYEPVKRYSSGMKARLAFALSLAVEFDCYLIDEVIAVGDSRFADKCKYELFEKRKDRSIILVSHSHSAMKQYCDNAMVLEKGHMYQFEDMDKAYEYYNSLP | not soluble
MGSDKIHHHHHHMAEKVDYAALKKGGFMRQKQKGCFSLRIAVVGGNLTAENIKTVAEVAEKYGHGYVHMTSRQGIEIPFIKVEDINVVKEELAKGGVGTGVCGPRVRTVTACQGSEICPSGCIDTYTLAKELDERYFGRELPHKFKFGVTGCQNNCLKAEENDVGIKGGMTVECSHDDCIQCGVCVKACREGALSMEDGRIVIDRDKCNNCARCVKSCPTDAWKGTPGYIVSFGGLFGNHIYKGEQLVPIIRDKETLFRVTDAAISFFEKHANGGERFRLTLQRVGEEEFKKEIQAAYEGK | not soluble
MGSDKIHHHHHHMAYRSAPLYEDVIWRTHLQPQDPTLAQAVRATIAKHREHLLEFIRLDEPAPLNAMTLAQWSSPNVLSSLLAVYSDHIYRNQPMMIRENKPLISLWAQWYIGLMVPPLMLALLTQEKALDVSPEHFHAEFHETGRVACFWVDVCEDKNATPHSPQHRMETLISQALVPVVQALEATGEINGKLIWSNTGYLINWYLTEMKQLLGEATVESLRHALFFEKTLTNGEDNPLWRTVVLRDGLLVRRTCCQRYRLPDVQQCGDCTLK | not soluble
TEKFTWNTNVSYSTNSNKVVALSSEKFSMDQDYFYTGYTGEPIQTTTHIVQVGKPIGTFYGLKSVDITDDGLWLVENKKGEHVLAEETDATDWQVLGNGIPKHYLNWNNTFNFFNFDLSINMRGAFGFQILNYQRMYYENAKPEIQYNRLNSAFDKVYGKTQLKDDQRYVSYYVEDGDYWKIDNVTLGYTFKLSKQHIIKNLRIYASVLNLATITGYKGMDPEVPLSSNTYGLLDAGTDNRDKYPTNRTYTFGVNLTF | not soluble
MGSDKIHHHHHHMKVVIVGNGPGGVELAKQLSEEHEVTIVERETVPYYTKPMLSHYVAGLAEEKSLFPYPIDWYEKKGIKLLLGTTAKRIDAEKKVLETDRGTLEYDVLVLATGAKPRTLKIPGWERMYTLRTIEDAKRLKGAVEREKDLLIIGGGFIGLEIAGNLSKQGIKVKVVEKMTRLMGLDEELTERIKGELEKHGVEFYLGRDVERIENDVLVTDKEEIPARVILCSIGIVPEVSLAKESGLDVNRGILVDKTFRTSKPDIYAIGDCAEHEGIICGTAKAAMAHAKVLANTLKGIPDEYDFHFRSSYFKFGDFPIAIVGELTDRGEWIDSETKSFYRDEKIVGVVVLSDVRKAREWEERLRSTR | not soluble
MLTFNDNKAGMNGLDKEKITKVIEENTSASYSSFSKKQQSRIEEKVLEIKNRLQTATREERQKSEILMENLEMKLESSRDLSRDCVCIDMDAYFAAVEMRDNPALRTVPMAVGSSAMLSTSNYLARRFGVRAGMPGFISNKLCPSLTIVPGNYPKYTKVSRQFSQIFMEYDSDVGMMSLDEAFIDLTDYVASNTEKKTFKRHRFGGDCPCWLPRFDENENTLEDLKIEESICPKCEKSRKIYYDHVEFGTGREEAVREIRFRVEQLTGLTCSAGIASNFMLAKICSDLNKPNGQYVLENDKNAIMEFLKDLPIRKVGGIGRVCEAQLKAMDIQTVGDMNLKKNLYPLCFTPLSQESFLRTALGLPGRPSESDPRRKSISVERTFSPTSDFNILLEEHQEICRMLEEDVRKSGIVGGKTVTLKLKLSSFDVLTRSLTPSDVVKSLEDIQKFSLELLEKEKGKEIRLLGVRLSQLIFEEDEKKRSKTVCQKILKTITDKYKAMFSSIFLRHFISDHRVLE | not soluble
MSESVQSNSAVLVHFTLKLDDGTTAESTRNNGKPALFRLGDASLSEGLEQHLLGLKVGDKTTFSLEPDAAFGVPSPDLIQYFSRREFMDAGEPEIGAIMLFTAMDGSEMPGVIREINGDSITVDFNHPLAGQTVHFDIEVLEIDPALEA | soluble
